Data on three molecules can be found in patent US20200024352A1 (Eli Lilly, published 2020).

The target in experiment [1] is T1, cell surface PD-L1 on MDA-MB231 cells (human, UniProt Q9NZQ7 19-290).
T1 construct: Endogenous PD-L1 of a PD-L1-positive human breast adenocarcinoma cell line; also called cell surface expressed human PD-L1
As to the kind of experiment: flow cytometry, Antibody B-biotin on MDA-MB231 cells, streptavidin-PE. (In general: In flow cytometry, cells or beads pass a laser one at a time.)

Experiment [2] concerns the target T2, human PD-L1-Fc fusion protein (human, UniProt Q9NZQ7 19-239).
T2 construct: also called human PD-L1-Fc (R&D Systems); biotinylated PD-L1-Fc fusion protein; not shown: Fc part
The experiment in a line: SPR, Biacore, Antibody B immobilized, PD-L1-Fc as analyte, 37 C, 1:1 model. On the technique in general: In SPR one partner is held on a chip, and binding of the other changes the refractive index at the surface.

For experiment [3], the target named is T3, cynomolgus monkey PD-L1-Fc fusion protein (cynomolgus monkey, UniProt G7PSE7 19-238).
T3 construct: also called Cyno PD-L1; not shown: Fc part
T3 sequence (G7PSE7 entry or part of it): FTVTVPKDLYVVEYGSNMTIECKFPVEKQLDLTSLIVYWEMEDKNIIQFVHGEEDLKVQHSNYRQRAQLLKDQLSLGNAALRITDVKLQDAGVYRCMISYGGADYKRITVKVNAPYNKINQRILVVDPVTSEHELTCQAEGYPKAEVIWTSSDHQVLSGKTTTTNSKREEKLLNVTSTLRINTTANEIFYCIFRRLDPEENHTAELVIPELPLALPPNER
As to the kind of experiment: SPR, Biacore, Antibody B immobilized, cyno PD-L1-Fc as analyte, 37 C, 1:1 model.

Experiment [4] has as its target T2, human PD-L1-Fc fusion protein. The experiment in a line: ELISA, plate-coated human PD-L1-Fc.
The target is the same in experiment [5]. The experiment in a line: blocking ELISA, PD-1-Fc on plate as competitor, biotinylated PD-L1-Fc. (In an ELISA, binding on a coated surface is turned into a signal by an enzyme label.)
For experiment [6] the target is unchanged. As to the kind of experiment: blocking ELISA, B7-1-Fc on plate as competitor, biotinylated PD-L1-Fc.
Experiment [7] has as its target T4, human Tim-3-IgV-Fc single arm antigen (SAG) (human).
T4 construct: the SAG construct itself is not described further; also called Tim-3 SAG; not shown: Fc part of the antigen arm, any linker to it, and the second antigen-free Fc arm
The experiment in a line: SPR, Biacore T100, antibody captured on Human Fab Binder, Tim-3 SAG as analyte, 1:1 Langmuir with mass transport.

Experiment [8] has as its target T5, human Tim-3-Fc (R&D Systems) (human, UniProt Q8TDQ0 22-130).
T5 construct: Bought reagent; Biotinylated in the phosphatidylserine assay, ruthenylated (sulfo-tag) in the galectin-9 assay, plain and plate-coated in the ELISA and the CEACAM1 assay; also called hTIM-3-Fc; hTIM-3-Fc Biotin; not shown: Fc part of the bought fusion protein
T5 sequence: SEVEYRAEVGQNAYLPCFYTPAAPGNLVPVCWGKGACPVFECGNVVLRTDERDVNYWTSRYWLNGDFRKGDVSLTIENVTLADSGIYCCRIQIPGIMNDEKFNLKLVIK
The experiment in a line: MSD blocking assay, galectin-9-biotin on streptavidin plate as competitor, ruthenylated Tim-3-Fc.

Experiment [9] addresses T6, human Tim-3, full-length, on cells (human, UniProt Q8TDQ0 22-301).
T6 construct: whole, on cells; also called cell surface Tim-3
T6 sequence (looked up): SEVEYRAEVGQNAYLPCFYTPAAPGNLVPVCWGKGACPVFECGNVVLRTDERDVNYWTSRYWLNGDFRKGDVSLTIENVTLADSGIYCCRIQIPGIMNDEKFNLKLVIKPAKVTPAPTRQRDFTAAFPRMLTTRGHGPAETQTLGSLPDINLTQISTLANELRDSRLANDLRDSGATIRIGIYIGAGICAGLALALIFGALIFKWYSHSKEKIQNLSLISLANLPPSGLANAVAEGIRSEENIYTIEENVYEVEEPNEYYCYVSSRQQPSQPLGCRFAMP
As to the kind of experiment: flow cytometry, A488-labelled antibody on Tim-3 DO11.10 cells.

For experiment [10], the target named is T5, human Tim-3-Fc (R&D Systems). The experiment in a line: flow cytometry, block of hTIM-3-Fc Biotin binding to phosphatidylserine on camptothecin-treated DO11.10 cells.
Experiment [11] has the same target. The experiment in a line: ELISA, plate-coated human Tim-3-Fc.
The target in experiment [12] is T7, hTim-3-IgV-FLAG (human, UniProt Q8TDQ0 22-130, glycosylation at Asn99 (density seen in the crystal structure)).
T7 construct: Purified from 293HEK supernatant on anti-FLAG resin; also called hTim-3-FLAG; not shown: FLAG tag
T7 sequence: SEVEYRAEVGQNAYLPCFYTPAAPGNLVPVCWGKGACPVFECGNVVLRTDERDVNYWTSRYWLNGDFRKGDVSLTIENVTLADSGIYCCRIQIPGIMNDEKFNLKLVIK
As to the kind of experiment: SPR, Biacore T200, Fab captured, hTim-3-IgV-FLAG as analyte, 25 C, 1:1 binding.

T2 sequence (Q9NZQ7 19-239 limits assumed): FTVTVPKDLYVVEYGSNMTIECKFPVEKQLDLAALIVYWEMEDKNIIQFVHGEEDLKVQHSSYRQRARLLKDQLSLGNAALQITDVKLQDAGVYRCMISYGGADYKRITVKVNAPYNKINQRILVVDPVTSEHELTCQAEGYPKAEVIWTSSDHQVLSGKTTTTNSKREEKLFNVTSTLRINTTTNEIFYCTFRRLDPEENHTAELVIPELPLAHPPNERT
T1 sequence (Q9NZQ7 19-290 limits assumed): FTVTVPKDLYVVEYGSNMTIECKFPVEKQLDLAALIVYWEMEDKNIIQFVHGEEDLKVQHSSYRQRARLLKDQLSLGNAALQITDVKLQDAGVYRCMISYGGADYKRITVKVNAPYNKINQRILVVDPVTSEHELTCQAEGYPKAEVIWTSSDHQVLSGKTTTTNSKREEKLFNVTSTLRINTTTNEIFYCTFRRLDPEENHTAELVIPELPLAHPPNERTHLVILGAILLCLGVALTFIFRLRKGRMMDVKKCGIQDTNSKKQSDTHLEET

B1: Antibody B (Anti-PD-L1 Antibody) (antibody, human IgG1, lambda, V domains shown)
VH: QVQLVQSGAEVKKPGSSVKVSCKASGGTFSSYAISWVRQAPGQGLEWMGGIIPIFGTANYAQKFQGRVTITADKSTSTAYMELSSLRSEDTAVYYCARSPDYSPYYYYGMDVWGQGTTVTVSS
VL: QSVLTQPPSASGTPGQRVTISCSGSSSNIGSNTVNWYQQLPGTAPKLLIYGNSNRPSGVPDRFSGSKSGTSASLAISGLQSEDEADYYCQSYDSSLSGSVFGGGIKLTVLG
notes: Full IgG; also called Lilly PD-L1 antibody Antibody B; Antibody B-biotin
A word on the EC50: it is the concentration giving half of the maximal effect. In general, Kd refers to the concentration at which binding is half-saturated. By koff is commonly meant a measure of how fast the partners let go of each other. For orientation: kon means the second-order rate constant of association. Usually IC50 stands for the concentration that gives 50% inhibition. As for B1, the figures for the EC50 in experiment [1] and in [4] were 0.14 nM and 0.11 nM, respectively. The Kd in experiment [2] is 0.082 nM; in experiment [3] it was 0.122 nM. Besides, the values for the dissociation rate constant (koff) in experiment [2] and in [3] were 0.000114 s⁻¹ and 0.000184 s⁻¹, respectively. The kon in experiment [2] is 1.4e+06 M⁻¹ s⁻¹; in experiment [3], 1.51e+06 M⁻¹ s⁻¹. Besides, the IC50 stood at 0.95 nM in [5] and 2.4 nM in [6].

B2: Antibody A (anti-Tim-3 Antibody) (antibody, human IgG1, kappa, V domains shown)
VH: EVQLLESGGGLVQPGGSLRLSCAASGFTFSSYYMSWVRQAPGKGLEWVSAISGSGGSTYYADSVKGRFTISRDNSKNTLYLQMNSLRAEDTAVYYCARYARTAFDLWGQGTLVTVSS
VL: DIVMTQSPSSLSASVGDGVTITCQASQDIYNYLNWYQQKPGKAPKLLIYAASSLQSGVPSRFSGSGSGTDFTLTISSLQPEDFATYYCQQANSFPPTFGQGTKLEIKR
notes: Full IgG; also called anti-human Tim-3 antibody
As for B2, the Kd in experiment [7] is 0.398 nM. This molecule registered a koff in experiment [7] of 0.000927 s⁻¹. The kon in experiment [7] amounted to 2.33e+06 M⁻¹ s⁻¹. In addition, the IC50 was found to be 5.6 nM in experiment [8] and 0.32 nM in experiment [10]. Moreover, the figures for the EC50 in [9] and in experiment [11] were 0.09 nM and 0.0207 nM, respectively.

B3: Antibody A-Fab (Fab, V domains shown)
VH: EVQLLESGGGLVQPGGSLRLSCAASGFTFSSYYMSWVRQAPGKGLEWVSAISGSGGSTYYADSVKGRFTISRDNSKNTLYLQMNSLRAEDTAVYYCARYARTAFDLWGQGTLVTVSS
VL: DIVMTQSPSSLSASVGDGVTITCQASQDIYNYLNWYQQKPGKAPKLLIYAASSLQSGVPSRFSGSGSGTDFTLTISSLQPEDFATYYCQQANSFPPTFGQGTKLEIKR
notes: Made by clipping Antibody A with immobilized papain; also called Fab for Antibody A
In [12], B3 showed a dissociation constant Kd of 7.92 nM, a koff of 0.00286 s⁻¹ and a kon of 362000 M⁻¹ s⁻¹.
